The sequences below were run on Escherichia coli TOP10 (assay: shrunken log2 fold change of peptide-encoding DNA abundance (4.5 h post-induction vs induction); higher = less antimicrobial activity (less host growth inhibition)). Conditions: time post-induction: 4.5 h; library: site-saturation at positions 5, 18, 19, 20.
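Note: peptides expressed intracellularly from a pBAD plasmid library in pooled LB shake-flask culture, induced with 0.3% L-arabinose, DNA abundance read by NGS, three biological replicates, DESeq2 with apeglm shrinkage.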

Sequence | shrunken log2 fold change
RRIRDRPPRLPRPRPRPFMRPRP | 0.05
RRIRVRPPRLPRPRPRPRKVPRP | -0.0445
RRIRMRPPRLPRPRPRPLIQPRP | 0.00597
RRIRYRPPRLPRPRPRPEQLPRP | -0.0122
RRIRYRPPRLPRPRPRPRQMPRP | -0.0779
RRIRHRPPRLPRPRPRPSRLPRP | 0.39
RRIRGRPPRLPRPRPRPTQTPRP | 0.775
RRIRNRPPRLPRPRPRPNYGPRP | -0.0781
RRIRCRPPRLPRPRPRPFTHPRP | -0.818
RRIRSRPPRLPRPRPRPPITPRP | -0.177
RRIRYRPPRLPRPRPRPRTVPRP | -0.0278
RRIRTRPPRLPRPRPRPCLNPRP | -0.000349
RRIRFRPPRLPRPRPRPGTAPRP | 0.0678
RRIRPRPPRLPRPRPRPQCSPRP | -0.0986
RRIRCRPPRLPRPRPRPTEIPRP | -0.146
RRIRRRPPRLPRPRPRPDDQPRP | 0.167
RRIRCRPPRLPRPRPRPLMKPRP | -0.275
RRIRHRPPRLPRPRPRPCFWPRP | -0.0857
RRIRFRPPRLPRPRPRPDRDPRP | -0.119
RRIRCRPPRLPRPRPRPTLHPRP | -0.0488
RRIRPRPPRLPRPRPRPYPGPRP | -0.159
RRIRMRPPRLPRPRPRPGWDPRP | 0.297

Sequence | shrunken log2 fold change
RRIRERPPRLPRPRPRPCYRPRP | -0.357
RRIRWRPPRLPRPRPRPDSHPRP | -0.126
RRIRRRPPRLPRPRPRPWIKPRP | 0.0892
RRIRYRPPRLPRPRPRPAAEPRP | 0.22
RRIRNRPPRLPRPRPRPDIRPRP | -0.01
RRIRRRPPRLPRPRPRPGVQPRP | -0.00257
RRIRERPPRLPRPRPRPQQPPRP | 0.166
RRIRPRPPRLPRPRPRPYGCPRP | -0.0896
RRIRLRPPRLPRPRPRPRSQPRP | 0.19
RRIRERPPRLPRPRPRPWYMPRP | -0.386
RRIRFRPPRLPRPRPRPRPVPRP | 0.633
RRIRTRPPRLPRPRPRPHQIPRP | 0.269
RRIRVRPPRLPRPRPRPHHIPRP | -0.386
RRIRMRPPRLPRPRPRPLISPRP | 0.171
RRIRMRPPRLPRPRPRPMTRPRP | 0.118
RRIRWRPPRLPRPRPRPTRTPRP | 0.83
RRIRFRPPRLPRPRPRPMKEPRP | -0.187
RRIRARPPRLPRPRPRPCRPPRP | -0.153
RRIRYRPPRLPRPRPRPMSLPRP | 0.0155
RRIRCRPPRLPRPRPRPLGAPRP | 0.444
RRIRRRPPRLPRPRPRPYFCPRP | -0.285
RRIRNRPPRLPRPRPRPQNIPRP | -0.263

Sequence | shrunken log2 fold change
RRIRHRPPRLPRPRPRPSKIPRP | -0.517
RRIRQRPPRLPRPRPRPSRVPRP | -0.00679
RRIRSRPPRLPRPRPRPPVIPRP | -0.0672
RRIRLRPPRLPRPRPRPLWYPRP | -0.191
RRIRQRPPRLPRPRPRPICSPRP | -0.0668
RRIRGRPPRLPRPRPRPWDKPRP | 0.067
RRIRKRPPRLPRPRPRPDTKPRP | -0.0643
RRIRFRPPRLPRPRPRPVNMPRP | -1.23
RRIRMRPPRLPRPRPRPCCIPRP | -0.351
RRIRTRPPRLPRPRPRPREDPRP | -0.147
RRIRRRPPRLPRPRPRPWVTPRP | -0.0822
RRIRSRPPRLPRPRPRPMWQPRP | -0.175
RRIRHRPPRLPRPRPRPFTPPRP | -0.484
RRIRYRPPRLPRPRPRPACNPRP | -0.238
RRIRGRPPRLPRPRPRPQAWPRP | 0.69
RRIRFRPPRLPRPRPRPFQKPRP | -0.00162
RRIRCRPPRLPRPRPRPHHSPRP | -0.201
RRIRDRPPRLPRPRPRPAHHPRP | 0.113
RRIRRRPPRLPRPRPRPPREPRP | 1.11
RRIRNRPPRLPRPRPRPSKGPRP | -0.00183
RRIRPRPPRLPRPRPRPEKKPRP | -0.044
RRIRGRPPRLPRPRPRPDYIPRP | -0.144

Sequence | shrunken log2 fold change
RRIRPRPPRLPRPRPRPWYCPRP | -0.111
RRIRRRPPRLPRPRPRPCDWPRP | 0.156
RRIRWRPPRLPRPRPRPQNNPRP | -0.622
RRIRARPPRLPRPRPRPHYEPRP | -0.234
RRIRTRPPRLPRPRPRPHEKPRP | -0.0018
RRIRVRPPRLPRPRPRPQGHPRP | -0.177
RRIRKRPPRLPRPRPRPPCQPRP | 0.47
RRIRTRPPRLPRPRPRPAGKPRP | 0.196
RRIRLRPPRLPRPRPRPWFAPRP | -0.112
RRIRNRPPRLPRPRPRPLSSPRP | -0.0989
RRIRTRPPRLPRPRPRPMVNPRP | 0.0818
RRIRMRPPRLPRPRPRPGQGPRP | 0.269
RRIRPRPPRLPRPRPRPGQGPRP | 0.201
RRIRKRPPRLPRPRPRPERCPRP | 0.559
RRIRSRPPRLPRPRPRPFWSPRP | -0.183
RRIRGRPPRLPRPRPRPNQVPRP | 0.195
RRIRHRPPRLPRPRPRPHNPPRP | -0.216
RRIRPRPPRLPRPRPRPWMSPRP | -0.166
RRIRRRPPRLPRPRPRPHWQPRP | 0.28
RRIRDRPPRLPRPRPRPEIPPRP | -0.0405
RRIRQRPPRLPRPRPRPFACPRP | -0.111
RRIRNRPPRLPRPRPRPADAPRP | 0.261

Sequence | shrunken log2 fold change
RRIRRRPPRLPRPRPRPPIKPRP | 0.14
RRIRIRPPRLPRPRPRPGHIPRP | -0.327
RRIRDRPPRLPRPRPRPHRTPRP | -0.0884
RRIRKRPPRLPRPRPRPFWDPRP | -0.0842
RRIRERPPRLPRPRPRPRDNPRP | -0.321
RRIRSRPPRLPRPRPRPGRQPRP | -0.00462
RRIRERPPRLPRPRPRPDDIPRP | -0.793
RRIRWRPPRLPRPRPRPDCLPRP | 0.166
RRIRARPPRLPRPRPRPWEQPRP | 0.248
RRIRTRPPRLPRPRPRPIVNPRP | -0.655
RRIRYRPPRLPRPRPRPVLAPRP | -0.037
RRIRSRPPRLPRPRPRPRKMPRP | 0.207
RRIRMRPPRLPRPRPRPQQEPRP | 0.137
RRIRGRPPRLPRPRPRPDHQPRP | 0.12
RRIRIRPPRLPRPRPRPDNIPRP | -0.116
RRIRKRPPRLPRPRPRPVHNPRP | -0.0446
RRIRCRPPRLPRPRPRPFPTPRP | -0.249
RRIRNRPPRLPRPRPRPPMYPRP | -0.25
RRIRPRPPRLPRPRPRPHMYPRP | -0.316
RRIRARPPRLPRPRPRPYTQPRP | -0.593
RRIRNRPPRLPRPRPRPCTHPRP | -0.147
